What all share (experiment): cell-based or functional assay
The target of test [1] is T1, human intermediate-affinity IL-2 receptor IL-2Rβγ on cells (human, UniProt P14784 27-551; P31785 23-369).
T1 sequence (looked up) 1: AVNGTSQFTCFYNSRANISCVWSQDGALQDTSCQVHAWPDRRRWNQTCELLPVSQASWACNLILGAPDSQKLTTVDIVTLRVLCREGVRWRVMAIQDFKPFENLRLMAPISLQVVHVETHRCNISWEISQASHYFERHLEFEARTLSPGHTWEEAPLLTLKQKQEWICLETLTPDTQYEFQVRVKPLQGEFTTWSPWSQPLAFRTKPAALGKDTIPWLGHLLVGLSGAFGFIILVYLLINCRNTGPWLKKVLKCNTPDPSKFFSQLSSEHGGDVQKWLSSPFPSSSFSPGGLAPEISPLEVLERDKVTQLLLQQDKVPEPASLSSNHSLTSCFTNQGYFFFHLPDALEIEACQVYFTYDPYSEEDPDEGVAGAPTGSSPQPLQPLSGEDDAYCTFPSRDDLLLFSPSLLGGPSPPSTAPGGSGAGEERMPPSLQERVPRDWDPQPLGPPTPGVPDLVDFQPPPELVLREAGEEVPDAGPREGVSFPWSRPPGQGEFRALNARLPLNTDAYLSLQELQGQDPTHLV
T1 sequence (looked up) 2: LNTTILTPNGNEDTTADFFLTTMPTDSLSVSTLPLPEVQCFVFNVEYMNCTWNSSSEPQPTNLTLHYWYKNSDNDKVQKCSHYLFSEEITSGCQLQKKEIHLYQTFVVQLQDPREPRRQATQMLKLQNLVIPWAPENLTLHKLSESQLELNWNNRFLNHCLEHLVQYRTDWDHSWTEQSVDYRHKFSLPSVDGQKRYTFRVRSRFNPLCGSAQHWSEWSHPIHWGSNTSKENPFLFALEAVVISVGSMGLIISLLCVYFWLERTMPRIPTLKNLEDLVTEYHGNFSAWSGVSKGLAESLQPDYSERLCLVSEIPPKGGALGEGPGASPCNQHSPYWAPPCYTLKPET

The target in test [2] is T2, mouse intermediate-affinity IL-2 receptor IL-2Rβγ on cells (mouse, UniProt P16297 27-539; P34902 23-369).
T2 sequence (looked up) 1: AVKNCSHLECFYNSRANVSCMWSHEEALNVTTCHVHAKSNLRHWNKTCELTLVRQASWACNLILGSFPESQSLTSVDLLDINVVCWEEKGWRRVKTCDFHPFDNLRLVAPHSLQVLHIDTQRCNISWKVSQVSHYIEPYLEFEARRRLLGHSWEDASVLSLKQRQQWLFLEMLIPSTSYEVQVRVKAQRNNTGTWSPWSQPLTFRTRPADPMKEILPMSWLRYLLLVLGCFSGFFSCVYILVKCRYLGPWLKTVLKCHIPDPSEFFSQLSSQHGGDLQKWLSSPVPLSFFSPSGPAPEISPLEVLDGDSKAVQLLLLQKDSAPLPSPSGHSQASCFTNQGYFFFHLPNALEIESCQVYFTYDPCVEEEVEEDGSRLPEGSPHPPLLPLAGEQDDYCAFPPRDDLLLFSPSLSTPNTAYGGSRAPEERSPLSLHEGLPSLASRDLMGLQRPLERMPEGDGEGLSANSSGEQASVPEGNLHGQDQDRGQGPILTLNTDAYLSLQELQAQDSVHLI
T2 sequence (looked up) 2: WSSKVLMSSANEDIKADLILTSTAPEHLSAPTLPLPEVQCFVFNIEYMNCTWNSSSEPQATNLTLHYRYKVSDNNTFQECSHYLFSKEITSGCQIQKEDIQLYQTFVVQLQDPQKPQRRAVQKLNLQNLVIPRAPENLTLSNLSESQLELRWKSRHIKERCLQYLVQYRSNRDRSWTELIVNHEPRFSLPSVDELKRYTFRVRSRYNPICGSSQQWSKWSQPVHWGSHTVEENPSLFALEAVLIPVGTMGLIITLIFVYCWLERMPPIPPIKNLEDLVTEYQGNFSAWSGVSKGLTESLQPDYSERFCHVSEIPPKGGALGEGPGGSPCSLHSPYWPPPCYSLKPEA

For test [3], the target named is T3, human high-affinity IL-2 receptor IL-2Rαβγ on cells (human, UniProt P01589 22-272; P14784 27-551; P31785 23-369).
T3 sequence (looked up) 1: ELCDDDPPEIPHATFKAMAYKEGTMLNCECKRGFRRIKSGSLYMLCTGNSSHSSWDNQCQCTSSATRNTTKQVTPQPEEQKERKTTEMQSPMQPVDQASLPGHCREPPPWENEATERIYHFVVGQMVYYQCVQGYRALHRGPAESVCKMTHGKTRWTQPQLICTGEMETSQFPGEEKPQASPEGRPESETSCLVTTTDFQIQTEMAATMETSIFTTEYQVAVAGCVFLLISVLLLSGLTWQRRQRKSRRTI
T3 sequence (looked up) 2: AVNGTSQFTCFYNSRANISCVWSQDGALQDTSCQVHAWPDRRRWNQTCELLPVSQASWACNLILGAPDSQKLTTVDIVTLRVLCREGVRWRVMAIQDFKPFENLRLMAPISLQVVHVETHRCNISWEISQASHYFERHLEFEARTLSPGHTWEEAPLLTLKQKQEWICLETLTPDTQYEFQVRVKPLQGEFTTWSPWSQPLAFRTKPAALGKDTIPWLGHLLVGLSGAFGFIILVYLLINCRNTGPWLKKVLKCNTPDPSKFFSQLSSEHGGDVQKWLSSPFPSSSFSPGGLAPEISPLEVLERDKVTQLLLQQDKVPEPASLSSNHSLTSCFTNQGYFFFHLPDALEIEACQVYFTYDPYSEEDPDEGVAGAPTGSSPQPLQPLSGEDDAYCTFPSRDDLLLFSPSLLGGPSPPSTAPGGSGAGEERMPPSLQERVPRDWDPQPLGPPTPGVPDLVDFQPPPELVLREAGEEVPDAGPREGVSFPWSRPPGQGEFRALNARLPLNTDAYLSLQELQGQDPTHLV
T3 sequence (looked up) 3: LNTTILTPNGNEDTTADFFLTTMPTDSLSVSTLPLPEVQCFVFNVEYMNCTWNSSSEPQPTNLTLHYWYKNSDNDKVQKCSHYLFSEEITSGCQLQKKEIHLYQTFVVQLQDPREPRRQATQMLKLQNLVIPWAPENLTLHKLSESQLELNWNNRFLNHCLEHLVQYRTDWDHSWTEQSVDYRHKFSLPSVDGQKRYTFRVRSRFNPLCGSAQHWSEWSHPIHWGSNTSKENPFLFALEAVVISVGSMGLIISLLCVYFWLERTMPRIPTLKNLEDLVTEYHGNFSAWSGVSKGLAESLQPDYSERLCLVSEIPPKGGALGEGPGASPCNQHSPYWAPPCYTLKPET

The target in test [4] is T1, human intermediate-affinity IL-2 …. The source holds these as a separate data set.
In test [5] the target is T4, mouse high-affinity IL-2 receptor IL-2Rαβγ on cells (mouse, UniProt P01590 22-268; P16297 27-539; P34902 23-369).
T4 sequence (looked up) 1: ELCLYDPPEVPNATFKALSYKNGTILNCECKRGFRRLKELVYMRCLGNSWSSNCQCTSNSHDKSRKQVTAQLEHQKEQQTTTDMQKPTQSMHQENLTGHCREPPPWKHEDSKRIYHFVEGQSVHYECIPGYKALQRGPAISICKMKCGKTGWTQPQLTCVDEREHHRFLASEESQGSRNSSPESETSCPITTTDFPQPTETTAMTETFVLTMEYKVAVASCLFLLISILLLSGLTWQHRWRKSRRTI
T4 sequence (looked up) 2: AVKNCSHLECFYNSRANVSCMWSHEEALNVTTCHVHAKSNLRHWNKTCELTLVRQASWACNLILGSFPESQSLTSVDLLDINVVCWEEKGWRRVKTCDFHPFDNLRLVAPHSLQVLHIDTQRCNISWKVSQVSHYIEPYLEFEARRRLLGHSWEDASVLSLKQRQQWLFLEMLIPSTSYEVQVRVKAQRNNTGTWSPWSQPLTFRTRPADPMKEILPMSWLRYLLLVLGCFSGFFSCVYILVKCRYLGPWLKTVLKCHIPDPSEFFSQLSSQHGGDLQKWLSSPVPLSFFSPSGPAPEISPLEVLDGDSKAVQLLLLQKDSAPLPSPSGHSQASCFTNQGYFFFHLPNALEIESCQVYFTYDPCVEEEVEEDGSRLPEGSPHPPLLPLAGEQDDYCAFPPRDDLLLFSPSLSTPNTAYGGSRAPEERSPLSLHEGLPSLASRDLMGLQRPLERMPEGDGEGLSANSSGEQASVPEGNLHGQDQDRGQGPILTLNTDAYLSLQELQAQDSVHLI
T4 sequence (looked up) 3: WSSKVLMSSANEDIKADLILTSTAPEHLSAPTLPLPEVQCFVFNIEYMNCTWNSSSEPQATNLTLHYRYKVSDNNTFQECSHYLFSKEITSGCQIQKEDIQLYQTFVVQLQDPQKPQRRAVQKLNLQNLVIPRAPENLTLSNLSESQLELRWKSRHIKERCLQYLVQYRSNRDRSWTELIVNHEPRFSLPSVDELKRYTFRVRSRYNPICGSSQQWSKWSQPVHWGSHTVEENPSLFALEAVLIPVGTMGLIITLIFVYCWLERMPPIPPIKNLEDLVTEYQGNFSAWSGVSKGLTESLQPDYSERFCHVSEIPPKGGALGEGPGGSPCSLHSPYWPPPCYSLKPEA

For test [6], the target named is T2, mouse intermediate-affinity IL-2 …. The source holds these as a separate data set.
For test [7], the target named is T4, mouse high-affinity IL-2 receptor …. The source holds these as a separate data set.
Test [8] has as its target T3, human high-affinity IL-2 receptor …. This is another data set of the same source.
The target in test [9] is T1, human intermediate-affinity IL-2 …. This is another data set of the same source.

B1: CP-trIL-2 072 (ligand)
chain: ELKHLQSLEEELKDLEEVLNLAQSKNFHLRPRDLISNINVIVLELKGSETTPTSSSTKKTQLQLEHLLLDLQMILNGINNYKNPTIVEFLNRWITFSQSIISTLT
On to B1, for which the “EC50 (read off the curve): STAT5 phosphorylation in HH cells” value in test [1] is around 20 nM. Further, in [2], the “EC50 of STAT5 activation, mouse CD8 T cells (flow cytometry)” value was determined as 110 nM and the “EC50 of STAT5 activation, mouse NK cells (flow cytometry)” value is 113 nM. Also, the “EC50 of STAT5 activation, human Tregs (flow cytometry)” value in test [3] is 22 nM. Moreover, in test [4], the “EC50 of STAT5 activation, human CD8 T cells (flow cytometry)” value stood at 45.7 nM and the “EC50 of STAT5 activation, human NK cells (flow cytometry)” value is 15.6 nM. For the same molecule, in test [5], the “EC50 of STAT5 activation, mouse Tregs (flow cytometry)” value was 129 nM. Moreover, in [6], the “% pSTAT5 in mouse splenocytes at High IL-2v concentration (25 nM per paragraph 254); western blot, pSTAT5/STAT5 normalised to 001 High” value is 91.3%. Also, the “% pSTAT5 in mouse splenocytes at Low IL-2v concentration (2.5 nM per paragraph 254); western blot, pSTAT5/STAT5 normalised to 001 High” value in test [7] was 30.7%. In addition, the “% pSTAT5 in human PBMC at Low IL-2v concentration (2.5 nM per paragraph 254); western blot, pSTAT5/STAT5 normalised to 001 High” value in test [8] amounted to 6.5%. The “% pSTAT5 in human PBMC at High IL-2v concentration (25 nM per paragraph 254); western blot, pSTAT5/STAT5 normalised to 001 High” value in test [9] is 41.4%.

The values above are taken from patent US20250163117A1 (CURE GENETICS, published 2025).
